In general, Kd refers to the free concentration of one partner at which half of the binding sites on the other are occupied at equilibrium, for simple one-to-one binding.

For the assay, the target named is human recombinant FVIII (Advate) (human, UniProt P00451 20-2351). Kind of assay: ELISA.
Chain of human recombinant FVIII (Advate) (P00451 20-2351): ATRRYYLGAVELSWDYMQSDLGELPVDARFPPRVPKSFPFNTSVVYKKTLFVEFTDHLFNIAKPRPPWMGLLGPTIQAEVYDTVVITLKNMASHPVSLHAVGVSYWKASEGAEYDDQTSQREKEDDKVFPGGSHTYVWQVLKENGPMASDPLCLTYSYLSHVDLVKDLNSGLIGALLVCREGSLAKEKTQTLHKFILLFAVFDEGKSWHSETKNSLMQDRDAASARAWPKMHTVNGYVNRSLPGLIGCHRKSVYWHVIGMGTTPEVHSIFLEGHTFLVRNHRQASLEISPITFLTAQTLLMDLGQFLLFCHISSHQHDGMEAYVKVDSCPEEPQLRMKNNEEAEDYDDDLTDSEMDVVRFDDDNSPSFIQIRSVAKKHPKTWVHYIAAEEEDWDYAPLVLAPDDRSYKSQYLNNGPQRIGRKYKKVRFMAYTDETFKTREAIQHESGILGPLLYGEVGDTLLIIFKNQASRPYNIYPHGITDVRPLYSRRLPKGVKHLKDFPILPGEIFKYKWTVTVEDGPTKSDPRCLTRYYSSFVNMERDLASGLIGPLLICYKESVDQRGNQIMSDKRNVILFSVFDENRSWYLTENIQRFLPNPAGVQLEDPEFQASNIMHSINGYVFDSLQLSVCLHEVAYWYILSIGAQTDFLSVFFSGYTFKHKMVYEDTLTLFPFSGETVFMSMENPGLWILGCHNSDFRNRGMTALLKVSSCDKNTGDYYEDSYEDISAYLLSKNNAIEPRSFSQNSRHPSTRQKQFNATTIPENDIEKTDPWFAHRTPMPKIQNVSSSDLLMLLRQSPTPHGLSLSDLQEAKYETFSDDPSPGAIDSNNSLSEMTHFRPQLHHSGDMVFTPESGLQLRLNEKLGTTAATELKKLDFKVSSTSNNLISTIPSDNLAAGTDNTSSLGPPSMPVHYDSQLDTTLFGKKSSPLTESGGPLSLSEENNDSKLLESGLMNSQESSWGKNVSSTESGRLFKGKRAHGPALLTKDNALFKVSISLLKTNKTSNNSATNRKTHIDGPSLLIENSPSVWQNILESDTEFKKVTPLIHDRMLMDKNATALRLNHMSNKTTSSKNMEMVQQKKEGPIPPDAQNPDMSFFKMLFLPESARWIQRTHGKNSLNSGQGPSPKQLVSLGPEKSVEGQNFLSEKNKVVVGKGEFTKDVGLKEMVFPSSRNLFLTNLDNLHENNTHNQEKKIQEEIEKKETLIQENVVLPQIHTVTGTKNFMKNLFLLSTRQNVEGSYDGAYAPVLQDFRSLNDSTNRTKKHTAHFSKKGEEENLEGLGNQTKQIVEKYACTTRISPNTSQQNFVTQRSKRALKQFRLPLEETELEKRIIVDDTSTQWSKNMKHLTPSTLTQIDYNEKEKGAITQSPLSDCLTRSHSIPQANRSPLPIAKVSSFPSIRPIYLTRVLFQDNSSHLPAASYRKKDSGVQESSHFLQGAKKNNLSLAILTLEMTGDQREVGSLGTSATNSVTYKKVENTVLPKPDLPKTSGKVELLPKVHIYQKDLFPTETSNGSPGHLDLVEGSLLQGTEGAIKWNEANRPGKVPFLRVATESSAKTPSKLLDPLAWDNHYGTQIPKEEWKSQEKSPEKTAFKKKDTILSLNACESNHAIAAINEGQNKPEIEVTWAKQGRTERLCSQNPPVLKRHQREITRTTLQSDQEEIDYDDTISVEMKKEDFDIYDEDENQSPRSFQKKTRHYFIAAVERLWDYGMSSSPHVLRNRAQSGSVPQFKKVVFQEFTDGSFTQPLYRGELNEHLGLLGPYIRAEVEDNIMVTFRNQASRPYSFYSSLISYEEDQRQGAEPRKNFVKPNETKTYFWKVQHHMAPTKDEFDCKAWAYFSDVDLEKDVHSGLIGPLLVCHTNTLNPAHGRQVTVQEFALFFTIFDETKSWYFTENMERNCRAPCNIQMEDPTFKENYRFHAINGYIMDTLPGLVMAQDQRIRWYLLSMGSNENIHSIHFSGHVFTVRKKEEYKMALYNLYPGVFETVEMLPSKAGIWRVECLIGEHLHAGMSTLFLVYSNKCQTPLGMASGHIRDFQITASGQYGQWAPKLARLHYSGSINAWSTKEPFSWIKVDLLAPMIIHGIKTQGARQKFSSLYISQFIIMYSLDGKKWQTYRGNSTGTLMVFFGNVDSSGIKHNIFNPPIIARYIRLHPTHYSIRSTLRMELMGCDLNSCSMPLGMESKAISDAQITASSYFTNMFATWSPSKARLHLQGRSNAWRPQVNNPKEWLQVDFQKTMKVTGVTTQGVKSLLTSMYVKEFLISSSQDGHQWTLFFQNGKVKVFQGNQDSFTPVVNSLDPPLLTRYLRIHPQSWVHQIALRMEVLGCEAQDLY

B1: recombinant CLEC4M-Fc chimera (Fc fusion, human, UniProt Q9H2X3 71-399, looked up)
chain: QVSKVPSSLSQEQSEQDAIYQNLTQLKAAVGELSEKSKLQEIYQELTQLKAAVGELPEKSKLQEIYQELTRLKAAVGELPEKSKLQEIYQELTRLKAAVGELPEKSKLQEIYQELTRLKAAVGELPEKSKLQEIYQELTELKAAVGELPEKSKLQEIYQELTQLKAAVGELPDQSKQQQIYQELTDLKTAFERLCRHCPKDWTFFQGNCYFMSNSQRNWHDSVTACQEVRAQLVVIKTAEEQNFLQLQTSRSNRFSWMGLSDLNQEGTWQWVDGSPLSPSFQRYWNSGEPNNSGNEDCAEFSGSGWNDNRCDVDNYWICKKPAACFRDE
Regarding B1, the Kd was less than 0.1 nM.

These data come from PMC7083068 (Journal of thrombosis and haemostasis : JTH, 2019).
